Target: Abx(+)D, TcmI-like aromatase/cyclase of the (+)-anthrabenzoxocinone pathway (Actinomycetes sp. MA7150)
Test: crystal structure

## Abx(+)D, TcmI-like aromatase/cyclase of the (+)-anthrabenzoxocinone pathway (enzyme)
  stoichiometry N: 2

Source: paper PMC10945814
